In general, stoichiometry N refers to the number of molecules, sites or subunits per partner or assembly. The Km is the concentration of substrate that gives half-maximal velocity. As a reminder, the kcat is the number of substrate molecules converted per active site and unit of time at saturation.

Four molecules from publication PMC8717395 (JACS Au, 2021) can be followed below.

In series [1] the target is NAD+-dependent formate dehydrogenase from Starkeya novella (Starkeya novella).
Series [2] concerns the molecule itself.
Substrate in series [3]: NC(=S)c1ccc[n+]([C@@H]2O[C@H](COP(=O)(O)OP(=O)(O)OC[C@H]3O[C@@H](n4cnc5c(N)ncnc54)[C@H](OP(=O)(O)O)[C@@H]3O)[C@@H](O)[C@H]2O)c1
The experiment in a line: purified protein. Conditions: 15.0 mM NADH; buffer B; substrate inhibition term in fit.

Substrate in series [4]: O=CO
The experiment in a line: purified protein. Particulars: 2.0 mM NAD+, buffer B, 30 °C.

Substrate in series [5]: NC(=O)c1ccc[n+]([C@@H]2O[C@H](COP(=O)([O-])OP(=O)(O)OC[C@H]3O[C@@H](n4cnc5c(N)ncnc54)[C@H](O)[C@@H]3O)[C@@H](O)[C@H]2O)c1
Nature of the series: purified protein. Conditions: 20 mM formate, buffer B, 30 °C.

Molecule “NAD+-dependent formate dehydrogenase from Starkeya novella (enzyme)” returned a stoichiometry N in series [1] of 2.

B1: soluble pyridine nucleotide transhydrogenase SthA from E. coli (enzyme, E. coli K-12, UniProt P27306 1-466, looked up)
chain: MPHSYDYDAIVIGSGPGGEGAAMGLVKQGARVAVIERYQNVGGGCTHWGTIPSKALRHAVSRIIEFNQNPLYSDHSRLLRSSFADILNHADNVINQQTRMRQGFYERNHCEILQGNARFVDEHTLALDCPDGSVETLTAEKFVIACGSRPYHPTDVDFTHPRIYDSDSILSMHHEPRHVLIYGAGVIGCEYASIFRGMDVKVDLINTRDRLLAFLDQEMSDSLSYHFWNSGVVIRHNEEYEKIEGCDDGVIMHLKSGKKLKADCLLYANGRTGNTDSLALQNIGLETDSRGQLKVNSMYQTAQPHVYAVGDVIGYPSLASAAYDQGRIAAQALVKGEATAHLIEDIPTGIYTIPEISSVGKTEQQLTAMKVPYEVGRAQFKHLARAQIVGMNVGTLKILFHRETKEILGIHCFGERAAEIIHIGQAIMEQKGGGNTIEYFVNTTFNYPTMAEAYRVAALNGLNRLF
On to B1, for which the “stoichiometry N” value in series [2] was 8.

B2: SthA (Escherichia coli K-12) (protein)
chain: PHSYDYDAIVIGSGPGGEGAAMGLVKQGARVAVIERYQNVGGGCTHWGTIPSKALRHAVSRIIEFNQNPLYSDHSRLLRSSFADILNHADNVINQQTRMRQGFYERNHCEILQGNARFVDEHTLALDCPDGSVETLTAEKFVIACGSRPYHPTDVDFTHPRIYDSDSILSMHHEPRHVLIYGAGVIGCEYASIFRGMDVKVDLINTRDRLLAFLDQEMSDSLSYHFWNSGVVIRHNEEYEKIEGCDDGVIMHLKSGKKLKADCLLYANGRTGNTDSLALQNIGLETDSRGQLKVNSMYQTAQPHVYAVGDVIGYPSLASAAYDQGRIAAQALVKGEATAHLIEDIPTGIYTIPEISSVGKTEQQLTAMKVPYEVGRAQFKHLARAQIVGMNVGTLKILFHRETKEILGIHCFGERAAEIIHIGQAIMEQKGGGNTIEYFVNTTFNYPTMAEAYRVAALNGLNRLF
For B2, in series [3], the Michaelis constant (Km) was 30 µM and the kcat worked out at 19.9 s⁻¹.

B3: Fdh (Ancylobacter novellus DSM 506) (protein)
chain: MAKILCVLYDDPVDGYPKTYARDDLPKIDHYPGGQTLPTPKAIDFTPGALLGSVSGELGLRKYLEANGHTFVVTSDKDGPDSVFERELVDADVVISQPFWPAYLTPERIAKAKNLKLALTAGIGSDHVDLQSAIDRGITVAEVTYCNSISVAEHVVMMILGLVRNYIPSHDWARKGGWNIADCVEHSYDLEGMTVGSVAAGRIGLAVLRRLAPFDVKLHYTDRHRLPEAVEKELGLVWHDTREDMYPHCDVVTLNVPLHPETEHMINDETLKLFKRGAYIVNTARGKLADRDAIVRAIESGQLAGYAGDVWFPQPAPKDHPWRTMKWEGMTPHISGTSLSAQARYAAGTREILECFFEGRPIRDEYLIVQGGALAGTGAHSYSKGNATGGSEEAAKFKKAG
With B3, the Km came to 2150 µM in series [4] and 110 µM in series [5]. The turnover number (kcat) in series [4] was determined as 0.87 s⁻¹; in series [5], 1.08 s⁻¹.
